# According to patent US20220119492A1 (MEDIKINE, published 2022):
# Bridge positions count the residues as written; N and C are the ends. Ends that are not written are not given here.
# T1: human IL-2Rβ (CD122 protein, Fc Tag) (27-239) (human, UniProt P14784 27-239)
# T1 construct: range 27-239; Bought protein; also called hu-IL-2Rβ subunit; IL-2Rβ subunit; not shown: Fc tag of the bought protein
# T1 sequence (looked up): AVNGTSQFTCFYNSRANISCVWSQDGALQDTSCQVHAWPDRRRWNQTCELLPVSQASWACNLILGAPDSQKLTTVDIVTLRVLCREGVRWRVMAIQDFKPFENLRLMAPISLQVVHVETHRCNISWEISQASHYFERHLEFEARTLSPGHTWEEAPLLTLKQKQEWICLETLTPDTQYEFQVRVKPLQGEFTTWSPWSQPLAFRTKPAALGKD
# Target: T1, human IL-2Rβ (CD122 protein, Fc Tag) …
# Experiment: phage ELISA competition
# Summary of the method: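 Values are IC50s derived from absorbance in a competitive binding ELISA, where a phage tracer competes with test ligands for human IL-2Rβ-Fc across a ligand dilution series. After 50 μL of phage tracer was added without washing for 45 min at 4° C, bound phage was detected with TMB for 1 to 15 min at 25° C. The reaction was then stopped and absorbance read at 450 nm.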
row,Binder,IC50 [µM]
1,WYPCWIAHLGELCDLE [SEQ ID NO 2671],< 100
2,WYPCWLAHLGELCDLE [SEQ ID NO 2699],< 100
3,WYPCWMAHLGELCDLE [SEQ ID NO 2804],< 100
4,WYPCWLAHLGELCDLA [SEQ ID NO 2725],< 100
5,WFPCWLAQLGELCDKE [SEQ ID NO 2681],< 100
6,WYPCWIAQLGELCDLDAKGQRR [SEQ ID NO 2667],< 100
7,SHLWFPCWMAQLGELCDLEGGP [SEQ ID NO 2683],< 100
8,RPSWAPCWLAQVGELCDLDHPE [SEQ ID NO 2693],< 100
9,WYPCWLAKLGELCDLDRAEALP [SEQ ID NO 2677],< 100
10,SRSAGEYYPCWLAQLGELCDLA [SEQ ID NO 2697],< 100
11,MNPVGTFYPCWIAKLGELCDLQ [SEQ ID NO 2687],< 100
12,AHWSQPCWTAQLGELCDLDMGD (disulfide 7-16 (inferred)) [SEQ ID NO 2647],< 100
13,WYPCSIALLGELCDLESVHEKS [SEQ ID NO 2689],< 100
14,WYPCWIARVGELCDLEEGPVNR [SEQ ID NO 2669],< 100
15,TNNFYPCWLAKLGDLCDFDDLN [SEQ ID NO 2668],< 100
16,HGRWFPCWMAQVGDLCDLEHSN [SEQ ID NO 2676],< 100
17,EQRNRQWWPCWLARLGDLCDLD [SEQ ID NO 2690],< 100
18,AVEFYPCWLARIGELCDLVEP [SEQ ID NO 2670],< 100
19,MLGEWLCEMDQLGYLCYLDHGD [SEQ ID NO 2654],< 100
20,ESKEPAFWPCWMAQLGDLCDLE [SEQ ID NO 2694],< 100
21,WYSCWIAQIGELCDLE [SEQ ID NO 2686],< 100
22,RWPWYPCEIARIGELCDLEQAN [SEQ ID NO 2674],< 100
23,ETLGSVWYPCWIASIGELCDLD [SEQ ID NO 2679],< 100
24,QTGSYPCWIAHLGELCDLEGSA (disulfide 7-16 (inferred)) [SEQ ID NO 2649],< 100
25,WYPCWIARVGELCDME [SEQ ID NO 2672],< 100
26,WYPCWIARVGELCDLE [SEQ ID NO 2884],< 100
27,WYPCWLAQLGELCDLD [SEQ ID NO 2691],< 100

# Now from value to binder:
row,IC50 [µM],Binder
1,< 100,WHPCWLARVGDLCDLD [SEQ ID NO 2696]
2,< 100,SRFWQPCWMAQLGELCHLDPQM [SEQ ID NO 2644]
3,< 100,YLNFNPCWTAQLGELCDLASGE [SEQ ID NO 2645]
4,< 100,WHPCWIAHLGELCDLE [SEQ ID NO 2718]
5,< 100,WYSCWIAQLGELCDLDDMGDRV [SEQ ID NO 2680]
6,< 100,WYPCWIAQLGELCDLV [SEQ ID NO 2682]
7,< 100,STGWYPCWIAEFGELCDLVKPH [SEQ ID NO 2646]
8,< 100,MGTGWQNYCRYAQLGELCLL [SEQ ID NO 2652]
9,< 100,TGWWYPCWMAQLGELCDLQQT [SEQ ID NO 2650]
10,< 100,VWFPCWFAQLGDLCDLDQDP (disulfide 5-14 (inferred)) [SEQ ID NO 2678]
11,< 100,HGGVIGWYPCWMAKVGELCDLD [SEQ ID NO 2688]
12,< 100,YWCWFARVGELCDLDDGGVPS [SEQ ID NO 2685]
13,< 100,RQVPKQWYPCWMAALGELCDLE (disulfide 10-19 (inferred)) [SEQ ID NO 2698]
14,< 100,FGAFYPCWKAQLGELCDLEPVT [SEQ ID NO 2675]
15,< 100,WDGWECGMDHDGWVCEFWGE [SEQ ID NO 2655]
16,< 100,RREWYPCWIAQVGELCDLPLI (disulfide 7-16 (inferred)) [SEQ ID NO 2673]
17,< 100,WYPCGVAQPGDLCDLE [SEQ ID NO 2653]
18,< 100,RRWLPCWMAHVGELCDLELGN [SEQ ID NO 2684]
19,< 100,DLWQPCWMARLGELCDLKG [SEQ ID NO 2651]
20,< 100,RSLRESWFPCWMAKLGDLCDLE [SEQ ID NO 2695]
21,< 100,HPVRYPCWVAQLGELCDLENGN [SEQ ID NO 2648]
22,< 100,WLPCWMAHLGDLCDLE [SEQ ID NO 2692]
23,< 100,WYPCWLAQVGELCDLD [SEQ ID NO 2885]
